Source: patent US20130065244A1, “METHOD FOR PRODUCING cAMP USING [sequence] OLFACTORY RECEPTOR” (published 2013)
Each block holds one molecule with its values, some of them ahead of it.

Columns and labels:
[1] = target: Gαolf (G protein alpha subunit which is specifically expressed on an olfactory epithelium) (mouse) (UniProt Q8CGK7)
[2] = target: Gαolf (G protein alpha subunit which is specifically expressed on an olfactory epithelium) (mouse, UniProt Q8CGK7); test: cell-based or functional assay

- concentration of cAMP (EIA, normalised to protein) after isoproterenol [1]: 0.956 pmol/µg
Molecule: beta-1 adrenergic receptor (β1AR)

- concentration increase value of the cAMP (300 µM eugenol minus 0 µM) [2]: 0.0017 pmol/microgram
B1: chimeric olfactory receptor chimeraIC3 (receptor)
chain: MNGTEGPNFYVPFSNKTGVVEQKLISEEDLEFMTLSDGNHSGAVFTLLGFSDYPELTIPLFLIFLTIYSITVVGNIGMIVIIRINPKLHIPMYFFLSHLSFVDFCYSSIVAPKMLVNLVTMNRGISFVGCLVQFFFFCTFVVTESFLLGVMAYDRFVAIRNPLLYTVAMSQRLCAMLVLGSYAWGVVCSLILTCSALNLSFYGFNMINHFFCEFSSLLSLSRSDTSVSQLLLFVFATFNEISTLLIILLSYVFREAQKQVKKIDSCERRFLSGPPRPPSPAPSPSPGPPRPADSLANGRSSKRRPSRLVALREQKAFSTCASHLTAITIFHGTILFLYCVPNSKNSRHTVKVASVFYTVVIPMLNPLIYSLRNKDVKDTVKKIIGTKVYSS

- concentration increase value of the cAMP (300 µM eugenol minus 0 µM) [2]: 0.0056 pmol/microgram
B2: chimeric olfactory receptor chimeraTM7 (receptor)
chain: MNGTEGPNFYVPFSNKTGVVEQKLISEEDLEFMTLSDGNHSGAVFTLLGFSDYPELTIPLFLIFLTIYSITVVGNIGMIVIIRINPKLHIPMYFFLSHLSFVDFCYSSIVAPKMLVNLVTMNRGISFVGCLVQFFFFCTFVVTESFLLGVMAYDRFVAIRNPLLYTVAMSQRLCAMLVLGSYAWGVVCSLILTCSALNLSFYGFNMINHFFCEFSSLLSLSRSDTSVSQLLLFVFATFNEISTLLIILLSYVLIVVTILKMKSASGRRKAFSTCASHLTAITIFHGTILFLYCVPNSKNSRHTPDRLFVFFNWLGYANSAFNPIIYCRSPDFRKAFQRLLCCARRAACRRRAAHGDRPRASGCLARAGPPPSPGAPSDDDDDDAGATPPARLLEPWAGCNGGTTTVDSDSSLDEPGRQGFSSESKV

- concentration increase value of the cAMP (300 µM eugenol minus 0 µM) [2]: 0.004 pmol/microgram
B3: chimeric olfactory receptor chimeraIC3-IC4 (receptor)
chain: MNGTEGPNFYVPFSNKTGVVEQKLISEEDLEFMTLSDGNHSGAVFTLLGFSDYPELTIPLFLIFLTIYSITVVGNIGMIVIIRINPKLHIPMYFFLSHLSFVDFCYSSIVAPKMLVNLVTMNRGISFVGCLVQFFFFCTFVVTESFLLGVMAYDRFVAIRNPLLYTVAMSQRLCAMLVLGSYAWGVVCSLILTCSALNLSFYGFNMINHFFCEFSSLLSLSRSDTSVSQLLLFVFATFNEISTLLIILLSYVFREAQKQVKKIDSCERRFLSGPPRPPSPAPSPSPGPPRPADSLANGRSSKRRPSRLVALREQKAFSTCASHLTAITIFHGTILFLYCVPNSKNSRHTVKVASVFYTVVIPMLNPLIYSLRNKDFRKAFQRLLCCARRAACRRRAAHGDRPRASGCLARAGPPPSPGAPSDDDDDDAGATPPARLLEPWAGCNGGTTTVDSDSSLDEPGRQGFSSESKV

- concentration increase value of the cAMP (300 µM eugenol minus 0 µM) [2]: 0.0009 pmol/microgram
B4: chimeric olfactory receptor chimera3 (receptor)
chain: MNGTEGPNFYVPFSNKTGVVEQKLISEEDLEFMGAGALALGASEPCNLSSAAPLPDGAATAARLLVLASPPASLLPPASEGSAPLSQQWTAGMGLLLALIVLLIVVGNVLVIVAIAKTPRLQTLTNLTRPMYFFLSHLSFVDFCYSSIVAPKMLVNLVTMNRGISFVGCLVQFFFFCTFVVTESFLLGVMAYDRFVAIRNPLLYTVAMSQRLCAMLVLGSYAWGVVCSLILTCSALNLSFYGFNMINHFFCEFSSLLSLSRSDTSVSQLLLFVFATFNEISTLLIILLSYVLIVVTILKMKSASGRRKAFSTCASHLTAITIFHGTILFLYCVPNSKNSRHTVKVASVFYTVVIPMLNPLIYSLRNKSRDFRKAFQRLLCCARRAACRRRAAHGDRPRASGCLARAGPPPSPGAPSDDDDDDAGATPPARLLEPWAGCNGGTTTVDSDSSLDEPGRQGFSSESKV

- concentration increase value of the cAMP (300 µM eugenol minus 0 µM) [2]: 0.0061 pmol/microgram
B5: Rho-mOREG (mouse olfactory receptor for eugenol with N-terminal Rho tag) (receptor)
chain: MNGTEGPNFYVPFSNKTGVVMTLSDGNHSGAVFTLLGFSDYPELTIPLFLIFLTIYSITVVGNIGMIVIIRINPKLHIPMYFFLSHLSFVDFCYSSIVAPKMLVNLVTMNRGISFVGCLVQFFFFCTFVVTESFLLGVMAYDRFVAIRNPLLYTVAMSQRLCAMLVLGSYAWGVVCSLILTCSALNLSFYGFNMINHFFCEFSSLLSLSRSDTSVSQLLLFVFATFNEISTLLIILLSYVLIVVTILKMKSASGRRKAFSTCASHLTAITIFHGTILFLYCVPNSKNSRHTVKVASVFYTVVIPMLNPLIYSLRNKDVKDTVKKIIGTKVYSS

- concentration increase value of the cAMP (300 µM eugenol minus 0 µM) [2]: 0.0109 pmol/microgram
B6: Rho-myc-mOREG (mouse olfactory receptor for eugenol with Rho tag and myc epitope tag) (receptor)
chain: MNGTEGPNFYVPFSNKTGVVEQKLISEEDLEFMTLSDGNHSGAVFTLLGFSDYPELTIPLFLIFLTIYSITVVGNIGMIVIIRINPKLHIPMYFFLSHLSFVDFCYSSIVAPKMLVNLVTMNRGISFVGCLVQFFFFCTFVVTESFLLGVMAYDRFVAIRNPLLYTVAMSQRLCAMLVLGSYAWGVVCSLILTCSALNLSFYGFNMINHFFCEFSSLLSLSRSDTSVSQLLLFVFATFNEISTLLIILLSYVLIVVTILKMKSASGRRKAFSTCASHLTAITIFHGTILFLYCVPNSKNSRHTVKVASVFYTVVIPMLNPLIYSLRNKDVKDTVKKIIGTKVYSS

- concentration increase value of the cAMP (300 µM eugenol minus 0 µM) [2]: 0.0185 pmol/microgram
B7: chimeric olfactory receptor chimera1 (receptor)
chain: MNGTEGPNFYVPFSNKTGVVEQKLISEEDLEFMTLSDGNHSGAVFTLLGFSDYPELTIPLFLIFLTIYSITVVGNIGMIVIIRINPKLHIPMYFFLSHLSFVDFCYSSIVAPKMLVNLVTMNRGISFVGCLVQFFFFCTFVVTESFLLGVMAYDRFVAIRNPLLYTVAMSQRLCAMLVLGSYAWGVVCSLILTCSALNLSFYGFNMINHFFCEFSSLLSLSRSDTSVSQLLLFVFATFNEISTLLIILLSYVLIVVTILKMKSASGRRKAFSTCASHLTAITIFHGTILFLYCVPNSKNSRHTVKVASVFYTVVIPMLNPLIYSLRNKDFRKAFQRLLCCARRAACRRRAAHGDRPRASGCLARAGPPPSPGAPSDDDDDDAGATPPARLLEPWAGCNGGTTTVDSDSSLDEPGRQGFSSESKV
